Source: paper PMC6410682

Biological target: 15N-labeled AR DBD (human, UniProt P10275 558-648)
Assay: NMR

Chain of 15N-labeled AR DBD (P10275 558-648): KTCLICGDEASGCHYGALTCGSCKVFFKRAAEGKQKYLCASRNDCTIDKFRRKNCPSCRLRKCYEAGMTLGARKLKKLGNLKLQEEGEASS

B1: ADR3 DNA duplex (NMR) (dsDNA)
DNA 1: CCAGAACATCAAGAACAC
DNA 2: GTGTTCTTGATGTTCTGG
B1: binds.
